Assay [1] has as its target PKC-βI (endogenous, human cell extracts) (human) (UniProt P05771). Description: Western blot Protocol B, IMR-32 extract, no peptide.
The target of assay [2] is PKC-βII (endogenous, human cell extracts) (human) (UniProt P05771). The description is as above.
The target of assay [3] is PKC-ε (endogenous, human cell extracts) (human) (UniProt Q02156). Description: Western blot Protocol B, IMR-32 extract, Band 1, no peptide. (A western blot detects proteins with antibodies after separation by electrophoresis.)
Assay [4] shares this target. Nature of the assay: Western blot Protocol B, IMR-32 extract, Band 2, no peptide.

Several values for one entry are separate records, joined by “and”; a condition that tells them apart may be missing. Identical values can stand only once.

PKC-ε (endogenous, human cell extracts) (human), sequence (Q02156 whole entry): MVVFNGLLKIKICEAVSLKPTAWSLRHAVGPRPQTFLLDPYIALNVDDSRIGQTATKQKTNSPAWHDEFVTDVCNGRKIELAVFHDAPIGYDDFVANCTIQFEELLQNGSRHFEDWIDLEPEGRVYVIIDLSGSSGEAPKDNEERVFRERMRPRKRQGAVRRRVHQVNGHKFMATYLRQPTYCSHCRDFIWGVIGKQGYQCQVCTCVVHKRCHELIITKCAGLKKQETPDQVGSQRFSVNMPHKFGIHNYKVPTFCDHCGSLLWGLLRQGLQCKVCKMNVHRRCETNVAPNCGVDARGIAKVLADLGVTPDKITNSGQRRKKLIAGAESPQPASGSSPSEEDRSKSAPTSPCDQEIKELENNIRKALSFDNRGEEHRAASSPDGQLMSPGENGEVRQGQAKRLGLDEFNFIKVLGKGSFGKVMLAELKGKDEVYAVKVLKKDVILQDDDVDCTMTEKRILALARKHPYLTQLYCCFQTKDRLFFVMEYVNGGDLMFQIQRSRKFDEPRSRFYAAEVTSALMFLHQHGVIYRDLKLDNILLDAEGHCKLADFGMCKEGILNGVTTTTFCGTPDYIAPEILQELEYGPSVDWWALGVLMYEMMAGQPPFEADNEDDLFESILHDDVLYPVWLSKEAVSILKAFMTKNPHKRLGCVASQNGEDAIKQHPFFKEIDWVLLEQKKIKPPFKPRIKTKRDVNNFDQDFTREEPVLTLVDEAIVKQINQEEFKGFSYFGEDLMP
PKC-βII (endogenous, human cell extracts) (human), sequence (P05771 other isoform, or with tags, fused parts or gaps limits assumed): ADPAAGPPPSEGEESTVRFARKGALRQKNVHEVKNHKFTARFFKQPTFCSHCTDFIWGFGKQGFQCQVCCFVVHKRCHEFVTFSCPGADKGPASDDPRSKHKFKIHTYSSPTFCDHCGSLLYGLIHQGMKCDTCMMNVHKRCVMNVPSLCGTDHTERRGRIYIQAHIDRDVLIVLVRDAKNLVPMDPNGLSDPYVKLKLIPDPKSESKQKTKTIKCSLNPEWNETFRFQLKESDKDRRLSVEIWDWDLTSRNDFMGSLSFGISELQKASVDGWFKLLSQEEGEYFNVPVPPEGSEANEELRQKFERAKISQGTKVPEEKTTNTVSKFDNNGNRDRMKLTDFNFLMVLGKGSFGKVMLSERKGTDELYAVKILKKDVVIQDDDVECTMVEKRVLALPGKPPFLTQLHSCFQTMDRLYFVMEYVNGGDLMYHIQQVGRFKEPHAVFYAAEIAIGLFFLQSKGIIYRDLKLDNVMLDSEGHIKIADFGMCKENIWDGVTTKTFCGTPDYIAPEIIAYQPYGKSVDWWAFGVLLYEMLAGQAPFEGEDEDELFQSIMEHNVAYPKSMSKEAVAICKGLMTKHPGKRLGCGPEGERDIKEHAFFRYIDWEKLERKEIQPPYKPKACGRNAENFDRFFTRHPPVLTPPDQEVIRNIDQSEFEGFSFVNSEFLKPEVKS
PKC-βI (endogenous, human cell extracts) (human), sequence (P05771 2-671): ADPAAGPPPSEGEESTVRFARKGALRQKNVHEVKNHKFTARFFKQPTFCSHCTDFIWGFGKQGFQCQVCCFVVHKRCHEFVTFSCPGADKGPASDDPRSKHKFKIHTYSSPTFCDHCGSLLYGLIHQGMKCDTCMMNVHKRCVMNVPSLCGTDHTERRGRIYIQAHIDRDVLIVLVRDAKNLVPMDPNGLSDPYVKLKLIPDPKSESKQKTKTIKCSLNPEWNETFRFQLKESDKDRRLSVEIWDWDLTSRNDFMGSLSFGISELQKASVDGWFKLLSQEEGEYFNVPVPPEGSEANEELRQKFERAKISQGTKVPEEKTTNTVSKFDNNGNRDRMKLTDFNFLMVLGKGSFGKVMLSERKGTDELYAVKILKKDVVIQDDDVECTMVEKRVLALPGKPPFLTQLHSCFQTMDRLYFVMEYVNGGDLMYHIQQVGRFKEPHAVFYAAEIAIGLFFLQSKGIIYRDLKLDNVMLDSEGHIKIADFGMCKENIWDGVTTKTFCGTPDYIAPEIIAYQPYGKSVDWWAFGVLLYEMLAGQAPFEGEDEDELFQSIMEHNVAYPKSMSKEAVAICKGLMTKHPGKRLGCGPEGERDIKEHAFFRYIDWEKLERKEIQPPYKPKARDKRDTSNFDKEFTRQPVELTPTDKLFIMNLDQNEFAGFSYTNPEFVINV

With “anti-PKC βI antibody (Cat. No. SC-209, Santa Cruz Biotechnology, Inc.)”, the band intensity in assay [1] worked out at 170.

In assay [2], “anti-PKC βII antibody (Cat. No. SC-210, Santa Cruz Biotechnology, Inc.)” had a band intensity of 98.6.

Consider “anti-PKC ε antibody (Cat. No. SC-214, Santa Cruz Biotechnology, Inc.)”, for which the band intensity was 421 and 420 and 323 in assay [3]; 261 and 281 and 286 in assay [4].

For the origin of these results see patent US20100041597A1, “PEPTIDES TARGETED TO PROTEIN KINASE C ISOFORMS AND USES THEREOF” (priority 2005, published 2010).
